The target in assay [1] is T1, Human IL-2Rβ, His tag (Table 10) (human, UniProt P14784 27-239, limits assumed).
T1 construct: not shown: polyhistidine tag
T1 sequence (looked up): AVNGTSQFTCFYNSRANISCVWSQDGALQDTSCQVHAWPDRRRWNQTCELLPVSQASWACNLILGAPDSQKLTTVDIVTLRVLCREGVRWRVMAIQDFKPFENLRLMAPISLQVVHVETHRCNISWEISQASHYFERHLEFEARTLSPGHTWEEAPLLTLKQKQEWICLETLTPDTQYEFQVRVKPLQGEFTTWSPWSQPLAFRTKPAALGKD
Nature of the assay: SPR (Biacore T200). As to the method:
A Surface Plasmon Resonance (SPR) assay on a Biacore T200 (GE Healthcare) instrument was used to determine the monovalent affinities of pegylated aldesleukin variants against polyhistidine-tagged or Fc-tagged IL-2 Receptors. Biacore T200 Evaluation Software was used to fit each titration series to a 1:1 binding model or steady state affinity. The association (kₒₙ, M⁻¹ s⁻¹) and dissociation (koff, s⁻¹) rate constants were determined for each set of titrations and used to calculate the dissociation constant, KD=koff/kₒₙ, of each sample against each receptor. koff/kₒₙ values are not reported herein.
In general terms: In SPR one partner is held on a chip, and binding of the other changes the refractive index at the surface.

Assay [2] has as its target T2, mouse IL-2Rαβγc (on CTLL2-STAT5 reporter cells) (mouse, UniProt P01590 22-268; P16297 27-539; P34902 23-369).
T2 sequence (looked up) 1: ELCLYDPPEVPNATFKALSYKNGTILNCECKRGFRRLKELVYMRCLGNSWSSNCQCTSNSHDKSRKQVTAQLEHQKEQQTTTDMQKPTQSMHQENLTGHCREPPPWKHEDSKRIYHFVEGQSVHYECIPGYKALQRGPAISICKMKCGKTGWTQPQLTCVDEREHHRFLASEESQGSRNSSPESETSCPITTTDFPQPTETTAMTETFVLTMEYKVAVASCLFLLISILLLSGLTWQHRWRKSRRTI
T2 sequence (looked up) 2: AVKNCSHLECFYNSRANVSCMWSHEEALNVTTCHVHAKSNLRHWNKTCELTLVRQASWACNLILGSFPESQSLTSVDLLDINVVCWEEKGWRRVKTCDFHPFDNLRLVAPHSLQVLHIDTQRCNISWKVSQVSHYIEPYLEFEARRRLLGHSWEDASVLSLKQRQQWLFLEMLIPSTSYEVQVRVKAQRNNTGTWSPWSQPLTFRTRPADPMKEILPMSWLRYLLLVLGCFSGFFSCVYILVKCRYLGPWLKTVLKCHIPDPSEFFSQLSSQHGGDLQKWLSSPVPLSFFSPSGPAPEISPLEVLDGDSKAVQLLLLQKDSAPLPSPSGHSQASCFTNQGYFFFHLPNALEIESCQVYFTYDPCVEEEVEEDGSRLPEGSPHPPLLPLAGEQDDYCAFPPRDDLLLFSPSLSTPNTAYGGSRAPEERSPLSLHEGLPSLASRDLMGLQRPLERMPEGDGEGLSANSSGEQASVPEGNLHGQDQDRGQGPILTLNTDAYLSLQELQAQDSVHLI
T2 sequence (looked up) 3: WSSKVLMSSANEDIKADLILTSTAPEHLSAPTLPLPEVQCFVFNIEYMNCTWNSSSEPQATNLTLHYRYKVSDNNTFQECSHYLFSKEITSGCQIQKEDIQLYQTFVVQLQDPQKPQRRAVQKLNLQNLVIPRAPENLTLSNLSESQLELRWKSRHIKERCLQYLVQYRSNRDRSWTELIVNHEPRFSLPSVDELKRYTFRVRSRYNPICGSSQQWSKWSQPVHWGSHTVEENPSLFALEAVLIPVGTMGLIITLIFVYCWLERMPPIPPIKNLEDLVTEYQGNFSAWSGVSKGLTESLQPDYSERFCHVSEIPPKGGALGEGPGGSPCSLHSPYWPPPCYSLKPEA
Nature of the assay: cell-based or functional assay.

Assay [3] addresses T3, human IL-2Rαβγc (on Kit225-STAT5 reporter cells, NK-92 cells, primary Treg cells) (human, UniProt P01589 22-272; P14784 27-551; P31785 23-369).
T3 sequence (looked up) 1: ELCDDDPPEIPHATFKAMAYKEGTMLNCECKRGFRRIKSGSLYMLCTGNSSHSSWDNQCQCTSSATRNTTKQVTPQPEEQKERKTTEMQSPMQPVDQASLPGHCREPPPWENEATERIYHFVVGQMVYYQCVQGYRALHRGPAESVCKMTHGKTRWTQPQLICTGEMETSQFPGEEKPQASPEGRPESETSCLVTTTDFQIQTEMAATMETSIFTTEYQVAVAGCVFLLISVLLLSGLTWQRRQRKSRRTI
T3 sequence (looked up) 2: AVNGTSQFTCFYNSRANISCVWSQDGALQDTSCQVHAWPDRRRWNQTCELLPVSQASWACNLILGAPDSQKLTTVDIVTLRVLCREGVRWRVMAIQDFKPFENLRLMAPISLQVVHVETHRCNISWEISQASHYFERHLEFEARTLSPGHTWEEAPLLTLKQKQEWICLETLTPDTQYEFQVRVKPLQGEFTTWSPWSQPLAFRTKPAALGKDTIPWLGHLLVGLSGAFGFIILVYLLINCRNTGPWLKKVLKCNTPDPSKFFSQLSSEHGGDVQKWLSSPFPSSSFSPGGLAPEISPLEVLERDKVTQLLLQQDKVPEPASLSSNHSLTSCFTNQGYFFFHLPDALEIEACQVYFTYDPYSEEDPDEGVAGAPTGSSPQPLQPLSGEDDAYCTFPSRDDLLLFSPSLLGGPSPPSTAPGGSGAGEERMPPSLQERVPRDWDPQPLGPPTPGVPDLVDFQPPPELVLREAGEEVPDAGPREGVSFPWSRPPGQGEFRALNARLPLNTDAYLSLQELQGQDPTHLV
T3 sequence (looked up) 3: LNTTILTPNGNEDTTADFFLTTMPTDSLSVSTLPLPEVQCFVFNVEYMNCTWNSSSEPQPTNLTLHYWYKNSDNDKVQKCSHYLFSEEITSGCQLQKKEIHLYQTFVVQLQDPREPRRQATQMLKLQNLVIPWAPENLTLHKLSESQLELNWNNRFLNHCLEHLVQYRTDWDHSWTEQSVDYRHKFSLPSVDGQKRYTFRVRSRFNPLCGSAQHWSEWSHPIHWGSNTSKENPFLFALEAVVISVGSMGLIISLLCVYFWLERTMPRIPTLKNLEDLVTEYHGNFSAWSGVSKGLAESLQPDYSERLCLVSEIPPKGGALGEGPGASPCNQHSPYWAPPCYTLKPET
The assay can be described thus: cell-based or functional assay.

For assay [4], the target named is T4, human IL-2Rβγc (on DERL-7 cells, U2OS IL2RB/IL2RG cells, CD25 knockout Kit225-STAT5 cells, primary CD8+ CTLs) (human, UniProt P14784 27-551; P31785 23-369).
T4 sequence (looked up) 1: T3 sequence (looked up) 2
T4 sequence (looked up) 2: T3 sequence (looked up) 3
Nature of the assay: cell-based or functional assay.

*1 amine or outer side, *2 acyl side, *3 side chain or, on linkers, in order; H or OH if unused. Side-chain parts run from the residue outwards. [ ]: non-standard residue; d: D form. pAMF = para-azidomethylphenylalanine, [N-]=[N+]=NCc1ccc(C[C@H](N[*:1])C(=O)[*:2])cc1

B1: Ald_S4pAMF(PEG1)/R37A/F41K (CON1) (ligand)
chain: PTS[pAMF]([DBCO‑triazole-mPEG 30 kDa])STKKTQLQLEHLLLDLQMILNGINNYKNPKLTAMLTKKFYMPKKATELKHLQCLEEELKPLEEVLNLAQSKNFHLRPRDLISNINVIVLELKGSETTFMCEYADETATIVEFLNRWITFSQSIISTLT
modifications: not fully specified (bridges)
notes: also called Des-A1_IL-2_S4pAMF(PEG1)/R37A/F41K/C124S
For B1, in assay [1], the “fold lower affinity than aldesleukin” value is 6 fold. Moreover, in assay [2], the “STAT5-CTLL2 EC50” value is 57.4 nM and the “STAT5-CTLL2 EC50 Fold-change” value is 5300 fold. Besides, in assay [3], the “Kit225-STAT5 EC50” value is 0.45 nM, the “Kit225-STAT5 EC50 Fold-change” value was found to be 437 fold, the “NK-92 EC50 Fold-change” value worked out at 117 fold and the “NK-92 proliferation EC50” value turned out to be 0.68 nM. In assay [4], the “DERL-7 EC50 Fold-change” value amounted to 17 fold and the “DERL-7 proliferation EC50” value came out at 0.73 nM.
